What was measured:
[1] = test system: H292 human lung cancer tumor cells; assay: Experimental Model 1: H292 tumor-bearing model; format: in vivo, CB-17 SCID mice; settings: H292, Day 7: 10 mg/kg; Day 21: 2 mg/kg; last measured 29 days after inoculation
Protocol: In this experiment, CB-17 SCID mice were subcutaneously inoculated with H292 human lung cancer tumor cells to establish a tumor-bearing model and determine the anti-tumor effect of the anti-EGFRxc-Met bispecific antibody. Sufficient H292 cells were cultured and expanded in vitro, and the cells were collected after trypsin digestion. After washing with PBS for 3 times, the cells were counted and inoculated subcutaneously at the right abdomen of female 8-week-old CB-17 SCID mice (purchased from Beijing Weitong Lihua) at an amount of 3×10^6 cells/mouse. The subcutaneous tumor formation of tumor cells in the mice was observed daily, and the maximum width axis W and the maximum length axis L of the subcutaneous tumor on the right abdomen of each animal were measured with a vernier caliper, and the weight of each mouse was weighed with an electronic balance. The subcutaneous tumor volume on the right abdomen of each mouse was calculated according to the following formula: tumor volume T=1/2×W×W×L. The mice with too large and too small tumor volumes were eliminated, and the remained mice were divided into 4 groups according to the average tumor volume, with 6 mice in each group. […]
The tumor volume and weight of mice were measured 2 to 3 times a week. The weight and tumor volume of mice were measured for the last time 29 days after the tumor cell inoculation, and then the mice were euthanized.

A375/H1975/HCC827 cells = assay: ADCC induction, CD16a-NFAT-Luc Jurkat reporter gene cells; format: cell-based, human; settings: A375, H1975, HCC827 target cells, CD16a-NFAT-Luc Jurkat effector cells, 6 h, FIG. 9
Text: A375 cells were human malignant melanoma cells and purchased from Addexbio, which were capable of expressing EGFR and c-Met receptors. H1975 cells were human lung adenocarcinoma cells and purchased from Addexbio, which were capable of highly expressing EGFR and c-Met receptors. HCC827 cells were human non-small cell lung cancer cells and purchased from the Cell Bank of the Chinese Academy of Sciences, which were capable of highly expressing EGFR and c-Met receptors. […]

monkey c-MET protein = assay: ForteBio affinity assay, monkey c-Met; format: binding
Protocol: (§1) After the antibodies were prepared, the ForteBio affinity assay was performed according to the reported method (Estep, P et al., Determination of antibody-antigen affinity and epitope binding based on high-throughput methods. MAbs, 2013.5(2): p. 270-8).

[2] = test system: HGF-c-MET signaling pathway; assay: Blocking of HGF-c-MET signaling pathway in Gefitinib-treated HCC827 cells (single antibody concentration); format: cell-based, human; settings: 3 days, Cell titer glo, FIG. 2
Protocol: HCC827 cells were human non-small cell lung cancer cells (purchased from the Cell Bank of the Chinese Academy of Sciences), which highly express epidermal growth factor receptor EGFR (exon 19 deletion) and c-Met receptor. The treatment with small molecule tyrosine kinase inhibitor (TKI) Gefitinib (gefitinib, an epidermal growth factor receptor tyrosine kinase inhibitor) would induce apoptosis in HCC827 cells. If HGF was added at the same time under such conditions, the c-Met pathway would be activated to induce HCC827 to produce resistance to Gefitinib, thereby inhibiting apoptosis.
The cell density of the HCC827 cells after the expanded culture was adjusted to 2×10^4 cells/ml, added to a 96-well cell culture plate at 100 μl/well, and cultured overnight for later use. The antibody to be tested was diluted to 1000 nM with 1640 medium, HGF was diluted to 800 ng/mL, and Gefitinib was diluted to 8 μM. According to the experimental requirements, the diluted antibody at 50 μl/well, HGF at 25 μl/well, and Gefitinib at 25 μl/well were added to the 96-well plate with HCC827 cells, and supplemented with 1640 medium to reach a total volume of 200 μl/well. After culturing for 3 days at 37° C. and 5% carbon dioxide, 100 μl of the medium was removed, and then Cell titer glo (purchased from Promega) was added at 100 μl/well, and the chemiluminescent signal was collected with an microplate reader.

human c-MET protein = human c-MET protein (Homo sapiens, UniProt P08581); assay: ForteBio affinity assay, human c-Met; format: binding
Protocol: as §1

Chain of human c-MET protein (P08581 25-1390): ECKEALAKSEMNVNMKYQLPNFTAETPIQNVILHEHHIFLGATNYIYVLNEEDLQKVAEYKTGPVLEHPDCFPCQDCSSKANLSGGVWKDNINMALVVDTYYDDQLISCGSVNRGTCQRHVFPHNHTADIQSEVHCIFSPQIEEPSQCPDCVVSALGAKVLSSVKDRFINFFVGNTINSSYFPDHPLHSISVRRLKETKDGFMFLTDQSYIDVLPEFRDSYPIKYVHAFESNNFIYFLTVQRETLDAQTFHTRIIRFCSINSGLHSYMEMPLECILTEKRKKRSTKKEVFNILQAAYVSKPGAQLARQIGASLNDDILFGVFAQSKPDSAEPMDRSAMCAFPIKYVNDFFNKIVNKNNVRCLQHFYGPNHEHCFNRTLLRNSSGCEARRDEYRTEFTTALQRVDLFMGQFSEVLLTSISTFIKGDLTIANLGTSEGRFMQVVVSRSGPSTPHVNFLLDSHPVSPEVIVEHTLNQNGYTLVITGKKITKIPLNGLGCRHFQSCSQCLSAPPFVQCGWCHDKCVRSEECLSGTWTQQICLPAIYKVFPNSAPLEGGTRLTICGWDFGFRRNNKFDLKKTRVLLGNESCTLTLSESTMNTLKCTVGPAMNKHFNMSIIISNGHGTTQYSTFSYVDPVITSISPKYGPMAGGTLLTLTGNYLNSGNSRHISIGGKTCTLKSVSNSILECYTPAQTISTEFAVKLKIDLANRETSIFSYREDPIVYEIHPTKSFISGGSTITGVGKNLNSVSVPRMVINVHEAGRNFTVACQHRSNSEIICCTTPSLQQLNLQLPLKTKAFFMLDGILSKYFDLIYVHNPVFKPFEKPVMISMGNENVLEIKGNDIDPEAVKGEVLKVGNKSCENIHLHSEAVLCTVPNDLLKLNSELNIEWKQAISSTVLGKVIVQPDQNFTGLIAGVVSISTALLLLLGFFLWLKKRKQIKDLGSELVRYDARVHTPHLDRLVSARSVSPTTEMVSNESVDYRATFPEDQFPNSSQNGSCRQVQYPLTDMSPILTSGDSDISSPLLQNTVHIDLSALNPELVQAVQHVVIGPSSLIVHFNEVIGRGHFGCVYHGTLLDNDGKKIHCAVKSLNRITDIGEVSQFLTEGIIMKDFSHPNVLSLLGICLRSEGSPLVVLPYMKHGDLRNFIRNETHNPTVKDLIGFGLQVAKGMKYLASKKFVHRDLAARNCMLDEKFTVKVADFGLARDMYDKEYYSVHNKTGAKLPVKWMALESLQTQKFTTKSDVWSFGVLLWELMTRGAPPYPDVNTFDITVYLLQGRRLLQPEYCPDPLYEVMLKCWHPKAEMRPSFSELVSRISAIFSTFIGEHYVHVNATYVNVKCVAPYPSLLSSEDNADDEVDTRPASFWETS

Molecule | tumor (volume) inhibition rate (TGI) [1] [%] | ADCC effect (A375/H1975/HCC827 cells) | Koff (monkey c-MET protein) [s⁻¹] | Kon (monkey c-MET protein) [M⁻¹ s⁻¹] | restoring the proliferation inhibitory effect of Gefitinib on HCC827 cells by blocking HGF-c-MET signaling [2] | Koff (human c-MET protein) [s⁻¹] | Kon (human c-MET protein) [M⁻¹ s⁻¹]
Amivantamab analog Afu: control bispecific antibody obtained from the afucosylation cell line with gene knockout (antibody, chains of the INN, looked up, V domains shown, afucosylated, control bispecific antibody obtained from the afucosylation cell line with gene knockout) VH: QVQLVESGGGVVQPGRSLRLSCAASGFTFSTYGMHWVRQAPGKGLEWVAVIWDDGSYKYYGDSVKGRFTISRDNSKNTLYLQMNSLRAEDTAVYYCARDGITMVRGVMKDYFDYWGQGTLVTVSS VL: AIQLTQSPSSLSASVGDRVTITCRASQDISSALVWYQQKPGKAPKLLIYDASSLESGVPSRFSGSESGTDFTLTISSLQPEDFATYYCQQFNSYPLTFGGGTKVEIK VH2: QVQLVQSGAEVKKPGASVKVSCETSGYTFTSYGISWVRQAPGHGLEWMGWISAYNGYTNYAQKLQGRVTMTTDTSTSTAYMELRSLRSDDTAVYYCARDLRGTNYFDYWGQGTLVTVSS VL2: DIQMTQSPSSVSASVGDRVTITCRASQGISNWLAWFQHKPGKAPKLLIYAASSLLSGVPSRFSGSGSGTDFTLTISSLQPEDFATYYCQQANSFPITFGQGTRLEIK | 74.5 | stronger ADCC effect than the wild-type antibody containing fucose |  |  |  |  | 
136: anti-c-MET antibody from yeast display screening; VH SEQ ID NO: 9, VL SEQ ID NO: 11 (antibody, V domains shown) VH: EVQLQESGPGLVKPSETLSLTCTVSGGSVTSVNYYWKWIRQPPGKGLEWIGYISYSGNTNYNPSLKSRVTISVDTSKNQFSLKLSSVTAADTAVYYCVRAPYYYMDVWSKGTTVTVSS VL: DIVMTQSPSSVSASVGDRVTITCRASQGISSWLAWYQQKPGKAPKLLIYAVSSLQSGVPSRFSGSGSGTDFTLTISSLQPEDFATYFCQQANSFPLTFGGGTKVEIK |  |  | 0.000426 | 369000 | could restore the proliferation inhibitory effect of Gefitinib on HCC827 cells | 6.71e-06 | 229000
187: anti-c-MET antibody from yeast display screening; VH SEQ ID NO: 13, VL SEQ ID NO: 15 (antibody, V domains shown) VH: ELQLQESGPGLVKPSETLSLTCTVSGGSISSSSYYWGWIRQSPGKGLEWIGSRYYSGNTYYNPSLKSRVTMSVDTSKNQFSLKLRSVTAADTAVYYCARQVYDYWRDWGQGALVTVSS VL: DIVMTQSPSSVSASVGDRVTITCRASQGISSWLAWYQQKPGKAPNLLIYAASNLPSGVPSRFSGSGSGTVFTLTISSLQPEDFATYYCQQSNSFPLTFGGGTKVEIK |  |  | 0.000947 | 324000 | could restore the proliferation inhibitory effect of Gefitinib on HCC827 cells | 0.000369 | 220000
